Source: publication PMC4946999 (ACS chemical biology, 2016)

Key:
[1] = target: FITC-labeled PIASγ peptide derived from the essential PIASγ LXXLL motif; test: fluorescence polarisation
SEC = target: the molecule itself; test: SEC

**Q.** With “Nurr1 ligand-binding domain (LBD) (from UniProt P43354 328-598) (domain or fragment)” as the molecule, how does the Kd [1] read?
**A.** Its Kd is 3.5 µM.

B1: Nurr1 ligand-binding domain (LBD) (domain or fragment)
chain: MVKEVVRTDSLKGRRGRLPSKPKSPQEPSPPSPPVSLISALVRAHVDSNPAMTSLDYSRFQANPDYQMSGDDTQHIQQFYDLLTGSMEIIRGWAEKIPGFADLPKADQDLLFESAFLELFVLRLAYRSNPVEGKLIFCNGVVLHRLQCVRGFGEWIDSIVEFSSNLQNMNIDISAFSCIAALAMVTERHGLKEPKRVEELQNKIVNCLKDHVTFNNGGLNRPNYLSKLLGKLPELRTLCTQGLQRIFYLKLEDLVPPPAIIDKLFLDTLPF
**Q.** How did the “stoichiometry N” value (SEC) turn out when B1 was run?
**A.** The value was 2.
